Test results taken from article PMC10787587.

What was measured:
Test in all cases: SEC
[1] = target: human CYP11B1 (11β-hydroxylase), N-terminally truncated and modified, C-terminally His-tagged (human) (UniProt P15538)
[2] = target: human CYP11A1 (side-chain cleavage enzyme), N-terminally truncated and modified, C-terminally His-tagged (human) (UniProt P05108)
[3] = target: human CYP11B2 (aldosterone generating enzyme), N-terminally truncated and modified, C-terminally His-tagged (human) (UniProt P19099)

human CYP11B1 (11β-hydroxylase), N-terminally truncated and modified, C-terminally His-tagged (from UniProt P15538 25-503) (enzyme)
stoichiometry N [1]: 4

human CYP11A1 (side-chain cleavage enzyme), N-terminally truncated and modified, C-terminally His-tagged (from UniProt P05108 40-521)
stoichiometry N [2]: 4

human CYP11B2 (aldosterone generating enzyme), N-terminally truncated and modified, C-terminally His-tagged (from UniProt P19099 25-503)
stoichiometry N [3]: 4
